# According to PMC3244446, “Soluble CD44 Interacts with Intermediate Filament Protein Vimentin on Endothelial Cell Surface” (PLoS ONE, 2011):
# Where “and” joins values, the source holds several entries; their conditions need not be identical. Identical values can stand only once.
# Tests used:
# Settings in all cases: both partners purified
# [1] = biological target: T1, recombinant full length human vimentin, His-tagged (human, UniProt P08670 1-466); test: ITC; 50 mM Tris, 150 mM NaCl, pH 8.0, 25°C; two preparations of CD443MUT (A, B), two pairs of concentrations each; n is vimentin/CD443MUT (mol/mol)
# T1 construct: vimentin, human, full length; The oligomeric state in the assays is not measured; the discussion supposes unit-length filaments; also called recombinant vimentin; source: expressed using pET15b vector
# [2] = biological target: T1, recombinant full length human vimentin, …; test: SPR; Biacore3000; vimentin amine-coupled to CM5 chip; CD443MUT 0.46–123 µM injected; 50 mM Tris, 150 mM NaCl, pH 8.0; parallel two-site binding model and equilibrium analysis (equation 1)
# [3] = biological target: T1, recombinant full length human vimentin, …; test: as above; remark: listed apart in the source
# [4] = biological target: T1, recombinant full length human vimentin, …; test: pull-down; GST-CD44HABD or GST-CD443MUT with recombinant vimentin
# T1 sequence (P08670 whole entry): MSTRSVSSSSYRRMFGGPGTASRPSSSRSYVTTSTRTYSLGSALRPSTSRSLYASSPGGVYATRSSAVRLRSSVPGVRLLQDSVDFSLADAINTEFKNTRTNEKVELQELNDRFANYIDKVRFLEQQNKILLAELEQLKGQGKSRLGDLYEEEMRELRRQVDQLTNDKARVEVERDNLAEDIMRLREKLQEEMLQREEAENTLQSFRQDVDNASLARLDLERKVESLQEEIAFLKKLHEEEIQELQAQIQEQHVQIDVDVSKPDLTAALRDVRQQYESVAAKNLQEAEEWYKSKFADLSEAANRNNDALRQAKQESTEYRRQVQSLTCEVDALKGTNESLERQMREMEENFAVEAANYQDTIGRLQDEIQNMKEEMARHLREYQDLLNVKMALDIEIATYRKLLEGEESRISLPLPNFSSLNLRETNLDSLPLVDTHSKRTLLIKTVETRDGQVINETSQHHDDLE
stoichiometry N [1],KD from equilibrium response values (equation 1) [2],KD of the high-affinity site (Kdiss1/Kass1) [2],stoichiometry N [2],KD of the low affinity site [3],binding result [4],Binder
9.9 mol/mol and 7.2 mol/mol,15 ± 2 µM,0.074 µM,6.2 mol/mol,15 µM,–,"CD443MUT (CD44HABD^R41AR78SY79S), recombinant, unlabeled (domain or fragment, human, UniProt P16070 21-132, looked up, Two preparations (A, B) were used in ITC; also called CD44HABD Arg41Ala, Arg78Ser, Tyr79Ser triple mutant; source: expressed using pET11c vector) QIDLNITCRFAGVFHVEKNGAYSISRTEAADLCKAFNSTLPTMAQMEKALSIGFETCSSGFIEGHVVIPRIHPNSICAANNTGVYILTSNTSQYDTYCFNASAPPEEDCTSV"
–,–,–,–,–,binds,"GST-tagged CD44 hyaluronan binding domain 21–132 (CD44HABD) (domain or fragment, human, UniProt P16070 21-132, looked up, also called GST-HABD; CD44 HABD 21–132; source: recombinant GST fusion-protein, purified as described [27]) QIDLNITCRFAGVFHVEKNGRYSISRTEAADLCKAFNSTLPTMAQMEKALSIGFETCRYGFIEGHVVIPRIHPNSICAANNTGVYILTSNTSQYDTYCFNASAPPEEDCTSV"
